According to patent publication US20220362357A1, “Synergistic Combinations of Amino Acid Depletion Agent Sensitizers (AADAS) and Amino Acid Depletion Agents (AADA), and Therapeutic Methods of Use Thereof” (STICHTING RADBOUD UNIVERSITAIR MEDISCH CENTRUM, priority 2018, published 2022):

What was measured:
Type in all cases: cell-based, human
Nalm6, Sem and Reh cells = assay: ASNase and ibrutinib 7 day treatment of ALL cell lines: SubG1, PARP cleavage, amine staining, colony assay; settings: 7 days; 1 IU/ml ASNase, ibrutinib 1 or 10 μM; FIGS. 4D, 4E, 4F & 4H
Method: BTK inhibition. […] Cell viability was then measured by cell cycle distribution, (FIGS. 4C & 4D), and by blotting for the apoptosis marker PARP and calculating the ratio between cleaved and uncleaved PARP protein or (FIG. 4E) by amine staining (FIG. 4F).

PDX m877 = assay: PDX ALL cells co-cultured on hTERT MSCs, ASNase x ibrutinib dilution matrix, microscopy; settings: m877 (3 d), ibrutinib B0=0 to B9=100
Method: (§1) After 2-4 months these mice developed full blown leukemia with an immunophenotype and genetic composition that in the large majority of cases is identical to the original material at the time of injection.
(§2) Briefly, hTERT immortalized MSCs were seeded in either a 384 wells format (microscopy) or a 96 wells format (7AAD staining) and allowed to settle for 24 hours prior to the addition of ALL xenografts. […] After 3 and 7 days of incubation, cell death was analyzed using microscopy using live cells staining or flowcytometry using 7AAD to discriminate between live or dead cells.

PDX m1717 = assay: as above; settings: m1717 (3 d), ibrutinib B0=0 to B9=100
Method: as §1, §2

PDX m4136 = assay: as above; settings: m4136 (3 d), ibrutinib B0=0 to B9=100
Method: as §1, §2

PDX m1338 = assay: as above; settings: m1338 (7 d), ibrutinib B0=0 to B9=100
Method: as §1, §2

PDX m4206 = assay: as above; settings: ibrutinib B0=0 to B9=100
Method: as §1, §2

B1: ASNase: native E. coli ASNase (NCBI WP_000394140.1), used in the in vitro studies (protein, UniProt P00805 23-348, looked up)
L-asparaginase 2: LPNITILATGGTIAGGGDSATKSNYTVGKVGVENLVNAVPQLKDIANVKGEQVVNIGSQDMNDNVWLTLAKKINTDCDKTDGFVITHGTDTMEETAYFLDLTVKCDKPVVMVGAMRPSTSMSADGPFNLYNAVVTAADKASANRGVLVVMNDTVLDGRDVTKTNTTDVATFKSVNYGPLGYIHNGKIDYQRTPARKHTSDTPFDVSKLNELPKVGIVYNYANASDLPAKALVDAGYDGIVSAGVGNGNLYKSVFDTLATAAKTGTAVVRSSRVPTGATTQDAEVDDAKYGFVASGTLNPQKARVLLQLALTQTKDPQQIQQIFNQY
- apoptotic killing efficacy (Nalm6, Sem and Reh cells): relatively small effect
- live cells by automated microscopy (table names no quantity) (PDX m877; ASNase A1=0.01): 5090
- live cells by automated microscopy (table names no quantity) (PDX m877; ASNase A2=0.03): 4877
- live cells by automated microscopy (table names no quantity) (PDX m877; ASNase A3=0.1): 4455
- live cells by automated microscopy (table names no quantity) (PDX m877; ASNase A4=0.3): 4789
- live cells by automated microscopy (table names no quantity) (PDX m877; ASNase A5=1): 5008
- live cells by automated microscopy (table names no quantity) (PDX m877; ASNase A6=3): 5125
- live cells by automated microscopy (table names no quantity) (PDX m877; ASNase A7=10): 4350
- live cells by automated microscopy (table names no quantity) (PDX m877; ASNase A8=32): 1205
- live cells by automated microscopy (table names no quantity) (PDX m877; ASNase A9 (A=100)): 2
- live cells by automated microscopy (table names no quantity) (PDX m1717; ASNase A1=0.01): 5977
- live cells by automated microscopy (table names no quantity) (PDX m1717; ASNase A2=0.03): 6674
- live cells by automated microscopy (table names no quantity) (PDX m1717; ASNase A3=0.1): 5155
- live cells by automated microscopy (table names no quantity) (PDX m1717; ASNase A4=0.3): 6700
- live cells by automated microscopy (table names no quantity) (PDX m1717; ASNase A5=1): 6589
- live cells by automated microscopy (table names no quantity) (PDX m1717; ASNase A6=3): 5782
- live cells by automated microscopy (table names no quantity) (PDX m1717; ASNase A7=10): 3762
- live cells by automated microscopy (table names no quantity) (PDX m1717; ASNase A8=32): 571
- live cells by automated microscopy (table names no quantity) (PDX m1717; ASNase A9 (A=100)): 24
- live cells by automated microscopy (table names no quantity) (PDX m4136; ASNase A1=0.01): 1992
- live cells by automated microscopy (table names no quantity) (PDX m4136; ASNase A2=0.03): 1998
- live cells by automated microscopy (table names no quantity) (PDX m4136; ASNase A3=0.1): 1980
- live cells by automated microscopy (table names no quantity) (PDX m4136; ASNase A4=0.3): 1892
- live cells by automated microscopy (table names no quantity) (PDX m4136; ASNase A5=1): 2157
- live cells by automated microscopy (table names no quantity) (PDX m4136; ASNase A6=3): 2652
- live cells by automated microscopy (table names no quantity) (PDX m4136; ASNase A7=10): 2136
- live cells by automated microscopy (table names no quantity) (PDX m4136; ASNase A8=32): 2172
- live cells by automated microscopy (table names no quantity) (PDX m4136; ASNase A9 (A=100)): 39
- live cells by automated microscopy (table names no quantity) (PDX m1338; ASNase A1=0.01): 2207
- live cells by automated microscopy (table names no quantity) (PDX m1338; ASNase A2=0.03): 3174
- live cells by automated microscopy (table names no quantity) (PDX m1338; ASNase A3=0.1): 2916
- live cells by automated microscopy (table names no quantity) (PDX m1338; ASNase A4=0.3): 2372
- live cells by automated microscopy (table names no quantity) (PDX m1338; ASNase A5=1): 2788
- live cells by automated microscopy (table names no quantity) (PDX m1338; ASNase A6=3): 2166
- live cells by automated microscopy (table names no quantity) (PDX m1338; ASNase A7=10): 1468
- live cells by automated microscopy (table names no quantity) (PDX m1338; ASNase A8=32): 292
- live cells by automated microscopy (table names no quantity) (PDX m1338; ASNase A9 (A=100)): 1
- live cells by automated microscopy (table names no quantity) (PDX m4206; m4206 (3 d), ASNase A1=0.01): 3112
- live cells by automated microscopy (table names no quantity) (PDX m4206; m4206 (3 d), ASNase A2=0.03): 2484
- live cells by automated microscopy (table names no quantity) (PDX m4206; m4206 (3 d), ASNase A3=0.1): 3106
- live cells by automated microscopy (table names no quantity) (PDX m4206; m4206 (3 d), ASNase A4=0.3): 2323
- live cells by automated microscopy (table names no quantity) (PDX m4206; m4206 (3 d), ASNase A5=1): 2141
- live cells by automated microscopy (table names no quantity) (PDX m4206; m4206 (3 d), ASNase A6=3): 2304
- live cells by automated microscopy (table names no quantity) (PDX m4206; m4206 (3 d), ASNase A7=10): 1979
- live cells by automated microscopy (table names no quantity) (PDX m4206; m4206 (3 d), ASNase A8=32): 301
- live cells by automated microscopy (table names no quantity) (PDX m4206; m4206 (3 d), ASNase A9 (A=100)): 69
- live cells by automated microscopy (table names no quantity) (PDX m4206; m4206 (7 d), ASNase A1=0.01): 56
- live cells by automated microscopy (table names no quantity) (PDX m4206; m4206 (7 d), ASNase A2=0.03): 52
- live cells by automated microscopy (table names no quantity) (PDX m4206; m4206 (7 d), ASNase A3=0.1): 86
- live cells by automated microscopy (table names no quantity) (PDX m4206; m4206 (7 d), ASNase A4=0.3): 37
- live cells by automated microscopy (table names no quantity) (PDX m4206; m4206 (7 d), ASNase A5=1): 83
- live cells by automated microscopy (table names no quantity) (PDX m4206; m4206 (7 d), ASNase A6=3): 87
- live cells by automated microscopy (table names no quantity) (PDX m4206; m4206 (7 d), ASNase A7=10): 68
- live cells by automated microscopy (table names no quantity) (PDX m4206; m4206 (7 d), ASNase A8=32): 24
